In PMC7952403 (Nature Communications, 2021) one finds Kd data, which are given here for one molecule.

For this assay, the target named is SARS-CoV-2 RBD-SD1, HEK cell produced (SPR) (Severe acute respiratory syndrome …, UniProt P0DTC2). Nature of the assay: SPR. The note with it: both partners purified.

B1: STE73-2E9 IgG (antibody, V domains shown)
VH: QVQLVQSGAEVKKPGASVKVSCKASGYTFTSYGISWVRQAPGQGLEWMGWISAYNGNTNYAQKLQGRVTMTTDTSTSTAYMELRSLRSDDTAVYYCARGKFDYWGQGTLVTVSS
VL: QSVLTQPPSVSEAPSQRVTISCSGSSSNIGNNAVNWYQQLPGKAPKLLIYYDDVLPSGVSDRFSGSKSGTSASLAISGLQSGDEADYYCAAWDDSLSGVVFGGGTKLTVL
notes: source: Expi293F, transfected, purified (Protein A); copies: 2 + 2
In general, Kd refers to the constant that tells how readily two partners part at equilibrium. The molecule B1 registered an equilibrium dissociation constant (Kd) of 2 nM.
